In series [1] the target is T1, C12-279 D352R/Q186R/H350R (synthetic construct, Q186R,H350R,D352R).
T1 chain: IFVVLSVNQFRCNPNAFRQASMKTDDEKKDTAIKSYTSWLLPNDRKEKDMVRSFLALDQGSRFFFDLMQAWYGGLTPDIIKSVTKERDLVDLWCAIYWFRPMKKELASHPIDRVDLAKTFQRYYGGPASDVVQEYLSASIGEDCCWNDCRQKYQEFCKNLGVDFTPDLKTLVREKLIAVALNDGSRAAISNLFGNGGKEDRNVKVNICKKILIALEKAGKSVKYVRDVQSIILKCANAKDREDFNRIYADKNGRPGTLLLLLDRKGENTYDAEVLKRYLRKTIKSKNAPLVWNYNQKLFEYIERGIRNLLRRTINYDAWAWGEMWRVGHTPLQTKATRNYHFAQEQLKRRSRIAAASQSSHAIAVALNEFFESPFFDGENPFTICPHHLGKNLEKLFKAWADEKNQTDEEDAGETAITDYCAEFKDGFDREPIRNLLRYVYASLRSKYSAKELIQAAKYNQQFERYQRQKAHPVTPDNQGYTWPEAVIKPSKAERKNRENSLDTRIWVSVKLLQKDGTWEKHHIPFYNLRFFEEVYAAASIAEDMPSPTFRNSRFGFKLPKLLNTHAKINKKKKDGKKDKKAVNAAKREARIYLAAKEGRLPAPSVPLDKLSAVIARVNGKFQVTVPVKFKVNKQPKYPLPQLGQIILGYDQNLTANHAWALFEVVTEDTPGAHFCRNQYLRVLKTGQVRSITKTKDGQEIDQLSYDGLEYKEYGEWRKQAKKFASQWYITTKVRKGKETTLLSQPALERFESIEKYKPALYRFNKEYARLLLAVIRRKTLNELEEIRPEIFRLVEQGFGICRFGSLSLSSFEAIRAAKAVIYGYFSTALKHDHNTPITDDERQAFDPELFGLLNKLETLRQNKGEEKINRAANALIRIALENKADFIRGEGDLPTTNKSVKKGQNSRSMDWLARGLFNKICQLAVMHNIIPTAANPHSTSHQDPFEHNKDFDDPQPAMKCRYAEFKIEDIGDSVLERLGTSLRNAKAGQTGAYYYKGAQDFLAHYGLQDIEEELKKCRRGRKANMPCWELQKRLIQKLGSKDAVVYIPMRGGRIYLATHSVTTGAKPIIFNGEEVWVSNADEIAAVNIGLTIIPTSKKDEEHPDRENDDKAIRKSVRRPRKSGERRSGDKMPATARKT
The series can be described thus: cell_activity; PAM TTG. As for the experimental part:
(§1) Transfection: transfection was performed 12-14 h after plating. 1.5 μL PEI (Yeasen Biotechnology, 40815ES03, Polyethylenimine Linear (PEI) MW25000) and 500 ng mutation clone plasmid were added to 100 μL Opti-MEM per well of the 24-well plate, mixed, and added to the NAAN cell line for cell transfection after placing at room temperature for 20 min. After overnight transfection, a fresh culture medium was replaced, and the culture was continued for 72 h, followed by flow cytometry. Editing efficiencies of different mutant clones were characterized by the proportion of GFP-positive cells.
(§2) Editing efficiency of some selected mutants was tested in Reporter3 cell line using the same manner as described for the NAAN reporter system, except that the cell line was changed from NAAN cell line to Reporter3 cell line.

The target in series [2] is T2, C12-279 G989R (synthetic construct, G989R).
T2 chain: T1 chain with R186Q, R350H, R352D, G989R
The series can be described thus: cell_activity; PAM TTG; +/-0.2. As for the experimental part: as §1, §2

Numbering of substitutions follows the chain as printed.

B1: C12-279 Reporter3 sgRNA ; Reporter3 target (ssRNA ; dsDNA)
RNA: GUAAUGCGUCUCCCAUUGACGCCUCACCUCGCGACGCAAUGAUG
DNA 1: CTCACCTCGCGACGCAATGATG
DNA 2: CATCATTGCGTCGCGAGGTGAG
On to B1, for which the values for the binding signal in series [1] and in series [2] were 2.11 fold of C12-279 and 1.27 fold of C12-279, respectively.
